Data on six molecules can be found in article PMC5131779.

In data set [1] the target is T1, G5N WT (Homo sapiens, UniProt Q8TEQ6 1-726). Put plainly: EMSA. A general note: A gel shift assay detects complexes by their altered migration in electrophoresis.
Data set [2] deals with T1, G5N WT. In words: EMSA. The source holds these as a separate data set.
Data set [3] has as its target T1, G5N WT. Put plainly: crystal structure.
The target of a further data set is G5N Y474A (Homo sapiens, UniProt Q8TEQ6 1-726, Y474A). In words: EMSA.
The next data set addresses G5N R335E (Homo sapiens, UniProt Q8TEQ6 1-726, R335E). In words: FP.
For a further data set, the target named is G5N Y383F (Homo sapiens, UniProt Q8TEQ6 1-726, Y383F). Put plainly: FP.
Another data set concerns the target G5N M403E (Homo sapiens, UniProt Q8TEQ6 1-726, M403E). In words: FP.
The target in data set [4] is T1, G5N WT. Put plainly: FP.
The target of a further data set is G5N R33A (Homo sapiens, UniProt Q8TEQ6 1-726, R33A). In words: FP.
For another data set, the target named is G5N N13A (Homo sapiens, UniProt Q8TEQ6 1-726, N13A). In words: FP.
A further data set concerns the target G5N R359A (Homo sapiens, UniProt Q8TEQ6 1-726, R359A). Put plainly: FP.
The target in the next data set is G5N M357A (Homo sapiens, UniProt Q8TEQ6 1-726, M357A). In words: FP.
G5N M357A, sequence (Q8TEQ6 1-726 M357A): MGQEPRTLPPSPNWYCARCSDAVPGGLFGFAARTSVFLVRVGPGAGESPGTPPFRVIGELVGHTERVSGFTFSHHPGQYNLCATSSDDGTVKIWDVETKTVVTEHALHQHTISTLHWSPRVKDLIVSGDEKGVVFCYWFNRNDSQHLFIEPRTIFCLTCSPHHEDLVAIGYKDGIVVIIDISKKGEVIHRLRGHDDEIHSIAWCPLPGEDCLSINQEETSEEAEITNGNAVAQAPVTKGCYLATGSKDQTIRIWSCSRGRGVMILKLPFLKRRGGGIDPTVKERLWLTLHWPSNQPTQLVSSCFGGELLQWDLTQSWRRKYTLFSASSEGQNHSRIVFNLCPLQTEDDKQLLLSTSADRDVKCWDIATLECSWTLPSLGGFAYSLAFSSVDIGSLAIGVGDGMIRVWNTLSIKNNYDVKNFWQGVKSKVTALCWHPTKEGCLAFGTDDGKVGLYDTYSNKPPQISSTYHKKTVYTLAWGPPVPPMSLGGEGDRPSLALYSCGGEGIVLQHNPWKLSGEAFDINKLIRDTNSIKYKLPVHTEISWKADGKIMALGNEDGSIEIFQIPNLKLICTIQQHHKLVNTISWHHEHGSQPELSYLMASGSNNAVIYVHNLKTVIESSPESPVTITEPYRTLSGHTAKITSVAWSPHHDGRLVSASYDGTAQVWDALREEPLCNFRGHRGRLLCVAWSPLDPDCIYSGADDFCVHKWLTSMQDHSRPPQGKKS

T1 sequence (Q8TEQ6 1-726): as the sequence (Q8TEQ6 1-726 M357A) above, with A357M counted along it
G5N R335E, sequence (Q8TEQ6 1-726 R335E): as the sequence (Q8TEQ6 1-726 M357A) above, with R335E, A357M counted along it
G5N R359A, sequence (Q8TEQ6 1-726 R359A): as the sequence (Q8TEQ6 1-726 M357A) above, with A357M, R359A counted along it
G5N R33A, sequence (Q8TEQ6 1-726 R33A): as the sequence (Q8TEQ6 1-726 M357A) above, with R33A, A357M counted along it
G5N Y474A, sequence (Q8TEQ6 1-726 Y474A): as the sequence (Q8TEQ6 1-726 M357A) above, with A357M, Y474A counted along it
G5N Y383F, sequence (Q8TEQ6 1-726 Y383F): as the sequence (Q8TEQ6 1-726 M357A) above, with A357M, Y383F counted along it
G5N M403E, sequence (Q8TEQ6 1-726 M403E): as the sequence (Q8TEQ6 1-726 M357A) above, with A357M, M403E counted along it
G5N N13A, sequence (Q8TEQ6 1-726 N13A): as the sequence (Q8TEQ6 1-726 M357A) above, with N13A, A357M counted along it

B1: U4 8-mer (ssRNA)
RNA: AAUUUUUG
B1: the binding result with G5N WT [1] is on record as “binds”.

B2: U4 11-mer (ssRNA)
RNA: CAAUUUUUGAC
For B2, the binding result in the data set with G5N WT [2] is given as “binds”.

B3: U4 9-mer (soak) (ssRNA)
RNA: CAAUUUUUG
For B3, in the data set with G5N WT [3], the binding result is reported as “binds”.

B4: U4 13-mer (ssRNA)
RNA: GCAAUUUUUGACA
Turning to B4, in the data set with G5N Y474A, the binding result is “binds”.

B5: U4 13-mer, FITC (ssRNA)
RNA: GCAAUUUUUGACA
For the molecule B5, the Kd (as a rule, the concentration at which binding is half-saturated) with G5N R335E was 96.7 µM; with G5N Y383F it was 3.8 µM; with G5N M403E, 2 µM; with G5N WT [4], 0.24 µM; with G5N R33A, 3.3 µM; in the data set with G5N N13A, 1.4 µM. The values for the Kd with G5N R359A and with G5N M357A were 46.6 µM and 8.1 µM, respectively.

B6: U4 7-mer (bare Sm site) (ssRNA)
RNA: AUUUUUG
In the case of B6, the binding result with G5N WT [3] was “binds”.
